Assay results published in patent US10064926B2, “Peptides and combination of peptides for use in immunotherapy against hepatocellular carcinoma (HCC) and other cancers” (Immatics biotechnologies GmbH, priority 2014, dated 2018).

Biological target: HLA-A*02 (Homo sapiens, UniProt P04439, D140Y/D185E/D98H/E176V/E277Q/G131W/G231S/I119V/I121R/I166T/I218V/N151K/N90K/P208A/P217A/Q86G/Q94H/R138H/R169H)
Test: UV-ligand exchange / peptide binding to MHC class I (beta2m ELISA)
Details: Table 10B; peptide exchange yield; HLA-A*02 peptides
Text: Candidate peptides for T cell based therapies according to the present invention were further tested for their MHC binding capacity (affinity). The individual peptide-MHC complexes were produced by UV-ligand exchange, where a UV-sensitive peptide is cleaved upon UV-irradiation, and exchanged with the peptide of interest as analyzed. Only peptide candidates that can effectively bind and stabilize the peptide-receptive MHC molecules prevent dissociation of the MHC complexes. To determine the yield of the exchange reaction, an ELISA was performed based on the detection of the light chain (β2m) of stabilized MHC complexes. The assay was performed as generally described in Rodenko et al. (Rodenko B, Toebes M, Hadrup S R, van Esch W J, Molenaar A M, Schumacher T N, Ovaa H. Generation of peptide-MHC class I complexes through UV-mediated ligand exchange. Nat Protoc. 2006; 1(3):1120-32).
96 well MAXISorp plates (NUNC) were coated over night with 2 ug/ml streptavidin in PBS at room temperature, washed 4× and blocked for 1 h at 37° C. in 2% BSA containing blocking buffer. Refolded HLA-A*0201/MLA-001 monomers served as standards, covering the range of 15-500 ng/ml. Peptide-MHC monomers of the UV-exchange reaction were diluted 100 fold in blocking buffer. Samples were incubated for 1 h at 37° C., washed four times, incubated with 2 ug/ml HRP conjugated anti-β2m for 1 h at 37° C., washed again and detected with TMB solution that is stopped with […]. Absorption was measured at 450 nm. Candidate peptides that show a high exchange yield (preferably higher than 50%, most preferred higher than 75%) are generally preferred for a generation and production of antibodies or fragments thereof, and/or T cell receptors or fragments thereof, as they show sufficient avidity to the MHC molecules and prevent dissociation of the MHC complexes.

Peptide exchange (MHC class I binding score) | Substance
“+++” (≥50 = +++) | 229 (KMFESFIESV; listed as Homo sapiens) [compound 229]
“++++” (≥75% = ++++) | 286 (KVLDKVFRA; listed as Homo sapiens) [compound 286]
“+++” (≥50 = +++) | 280 (ATLNIIHSV; listed as Homo sapiens) [compound 280]
“+++” (≥50 = +++) | 261 (VLFQEALWHV; listed as Homo sapiens) [compound 261]
“+++” (≥50 = +++) | 275 (ALIEGAGILL; listed as Homo sapiens) [compound 275]
“+++” (≥50 = +++) | 181 (YLLEKFVAV; listed as Homo sapiens) [compound 181]
“++++” (≥75% = ++++) | 287 (LIGEFLEKV; listed as Homo sapiens) [compound 287]
“+++” (≥50 = +++) | 246 (KLISSYYNV; listed as Homo sapiens) [compound 246]
“+++” (≥50 = +++) | 240 (FLWERPTLLV; listed as Homo sapiens) [compound 240]
“++++” (≥75% = ++++) | 302 (KIQEILTQV; listed as Homo sapiens) [compound 302]
“+++” (≥50 = +++) | 255 (SLFGQDVKAV; listed as Homo sapiens) [compound 255]
“+++” (≥50 = +++) | 174 (TLAELGAVQV; listed as Homo sapiens) [compound 174]

Continued, substance first:

Substance | Peptide exchange (MHC class I binding score)
22 (RIAGIRGIQGV; listed as Homo sapiens) [compound 22] | “++++” (≥75% = ++++)
3 (ILDDNMQKL; listed as Homo sapiens) [compound 3] | “+++” (≥50 = +++)
162 (RLMSALTQV; listed as Homo sapiens) [compound 162] | “++” (≥20% = ++)
87 (RLFEENDVNL; listed as Homo sapiens) [compound 87] | “+++” (≥50 = +++)
54 (GLLDPNVKSIFV; listed as Homo sapiens) [compound 54] | “+++” (≥50 = +++)
161 (RLLDEQFAV; listed as Homo sapiens) [compound 161] | “+++” (≥50 = +++)
41 (ALLELDEPLVL; listed as Homo sapiens) [compound 41] | “++++” (≥75% = ++++)
151 (HLAKVTAEV; listed as Homo sapiens) [compound 151] | “+++” (≥50 = +++)
69 (KLLDEVTYLEA; listed as Homo sapiens) [compound 69] | “++++” (≥75% = ++++)
122 (YLSQAADGAKVL; listed as Homo sapiens) [compound 122] | “++” (≥20% = ++)
17 (RVASPTSGV; listed as Homo sapiens) [compound 17] | “+++” (≥50 = +++)
91 (RLPDIPLRQV; listed as Homo sapiens) [compound 91] | “+++” (≥50 = +++)
85 (RILPKVLEV; listed as Homo sapiens) [compound 85] | “+++” (≥50 = +++)
147 (GLAPGGLAVV; listed as Homo sapiens) [compound 147] | “+++” (≥50 = +++)
23 (RLYDPASGTISL; listed as Homo sapiens) [compound 23] | “+++” (≥50 = +++)
97 (SLLPQLIEV; listed as Homo sapiens) [compound 97] | “++++” (≥75% = ++++)
117 (YAFPKSITV; listed as Homo sapiens) [compound 117] | “+++” (≥50 = +++)
75 (KQMEPLHAV; listed as Homo sapiens) [compound 75] | “++” (≥20% = ++)
